Experimental data reported in publication PMC8617249, “Pharmacokinetic and pharmacodynamic similarity between SAR341402 insulin aspart and Japan-approved NovoRapid in healthy Japanese subjects” (Scientific Reports, 2021).

Columns and labels:
[1] = Plasma insulin aspart pharmacokinetics after a single subcutaneous dose (LC-MS/MS, noncompartmental); format: in vivo, human; details: single 0.3 U/kg s.c.; for INS-AUCinf, gMean (% CV) / INS-Cmax, gMean (% CV) / INS-AUClast, gMean (% CV): healthy Japanese males, fasting, plasma, LC-MS/MS, geometric mean (%CV); for INS-AUCinf, gMean (% CV): extrapolated to infinity; for INS-AUCinf, gMean (% CV) / INS-AUClast, gMean (% CV): N = 39/40; for INS-Cmax, gMean (% CV): N = 39 SAR-Asp, 40 NN-Asp-Jp; for INS-AUClast, gMean (% CV): time 0 to last quantifiable point
Source text: Following a screening visit 3–28 days before the first period, subjects enrolled into the study were admitted to the study clinic on the day before dosing. On the day of treatment, they were randomized (computer-generated by sponsor) to one of the two treatment sequences (see Supplementary Fig. S1). Subjects received a single subcutaneous dose of 0.3 U/kg SAR-Asp or NN-Asp-Jp in the first treatment period in randomized order followed by the other drug in the second treatment period. A wash-out period of 7–18 days separated each treatment period, with an end-of-study visit performed 4–8 days after the last dose.
Venous blood samples for pharmacokinetic analysis were collected before dosing of study drug, and then every 15 to 60 min during the 10 h clamp period. Samples were centrifuged within 20 min of collection. Plasma was collected and kept frozen (− 60 to − 80 °C) until analysis. Plasma concentrations of SAR-Asp and NN-Asp-Jp were analyzed by using a validated liquid chromatography-tandem mass spectrometry (LC–MS/MS) assay at Syneos Health (Quebec, Canada). Plasma concentrations within the validated concentration range (100–8000 pg/mL) were used to calculated pharmacokinetic parameters. Inter-assay precision (% coefficient of variation [CV]) and inter-assay accuracy (%bias) during validation were ≤ 15%.
The pharmacokinetic analysis dataset included subjects who completed at least one treatment period, had measurable insulin aspart concentrations and no major or critical deviations. Parameter estimates for SAR-Asp and NN-Asp-Jp were calculated by using standard noncompartmental methods with Phoenix WinNonlin 8.1 (Certara, Princeton, NJ). Area under the plasma insulin aspart concentration–time curve was calculated by the trapezoidal method from 0 to the time of the last concentration above the limit of quantification (INS-AUClast) and extrapolated to infinity (INS-AUCinf). Maximum plasma insulin aspart concentration observed (INS-Cmax) and INS-AUClast were the primary pharmacokinetic endpoints of the study. INS-AUCinf was a secondary endpoint.
(§1) Log-transformed pharmacokinetic and pharmacodynamic parameter estimates for SAR-Asp and NN-Asp-Jp were analyzed using a linear mixed-effects model with period, sequence, and treatment as fixed effects and subject as a random effect. For each parameter, the model-based difference in treatment means along with the confidence limits (90% for pharmacokinetic parameters, 95% for pharmacodynamic parameters) was back-transformed to provide estimates for the ratio of geometric means (gMean) between treatments (SAR-Asp/NN-Asp-Jp) and the corresponding confidence limits. Similarity for the pharmacokinetic parameters (INS-AUCinf and INS-Cmax) and bioequipotency for the pharmacodynamic parameters (GIR-AUC0–10 h and GIRmax) was concluded if the confidence limits (90% and 95% confidence intervals [CIs], respectively) of the treatment ratios were entirely within the 0.80–1.25 equivalence interval, in agreement with regulatory guidance[2],[18]. Data was analyzed using SAS v9.4 (SAS Institute, Cary, NC).

healthy Japanese males = assay: 10 h automated euglycemic clamp, glucose infusion rate (glucodynamics); format: in vivo, human; details: single 0.3 U/kg s.c.; for GIR-AUC0-10 h, gMean (% CV) / GIRmax, gMean (% CV) / median GIR-tmax (time to reach GIRmax): healthy Japanese males, 10 h euglycemic clamp; for GIR-AUC0-10 h, gMean (% CV): body weight standardized GIR, N = 36 SAR-Asp, 38 NN-Asp-Jp; for GIR-AUC0-10 h, gMean (% CV) / GIRmax, gMean (% CV): geometric mean (%CV); for GIRmax, gMean (% CV): smoothed GIR (LOESS, 0.06), N = 36/38
Experimental: Each dosing visit included a 10 h automated euglycemic clamp procedure (STG-55, Artificial Endocrine Pancreas; Nikkiso Co, Ltd, Tokyo, Japan)[13]. The premise of performing the clamp procedure is that the blood glucose lowering effect of an administered insulin is antagonized by a variable infusion of glucose so that blood glucose is maintained (or clamped) at a target level[2],[14]. The metabolic profile of the investigated insulin is characterized by the glucose infusion rate (GIR) needed to keep blood glucose as close as possible at its predefined target level during the glucose clamp.
Following an overnight fast of at least 10 h, subjects were connected to the clamp device and their baseline blood glucose was determined (via glucose oxidase sensors that measure whole-blood glucose levels) before dosing of the study drug. For each subject, this was calculated as the mean of four glucose measurements at 30, 20, 10 and 1 min before administration of the study drugs. The clamp procedure was not performed in those subjects having a baseline glucose level less than 70 mg/dL ([…]). After dosing, onset of insulin action in each subject was when the blood glucose dropped below the target level of the clamp procedure, which was when it was 5 mg/dL (0.28 mmol/L) less than their fasting baseline value.
Blood glucose levels were measured in 1-min intervals, and using a predefined algorithm the clamp device automatically administered a variable infusion of 10% glucose in response to changes in glucose to maintain each subject at their target glucose level. The GIR, being the amount of external glucose needed to keep a subject’s blood glucose concentration at its target level, was continuously measured, and recorded by the STG-55 device. GIR profiles reflected the metabolic effects of SAR-Asp and NN-Asp-Jp over time.
The GIR over time was the primary pharmacodynamic parameter measured during the clamp procedure. The area under the body weight-standardized GIR time curve [GIR-AUC] measured insulin mediated glucose uptake into tissues. Subjects completing at least one clamp procedure with no major or critical deviations were included in the pharmacodynamic analysis dataset. Individual GIR values in each treatment group were standardized for body weight and subjected to a smoothing procedure using a locally weighted scatterplot smoothing (LOESS) function (SAS, PROC LOESS, factor 0.06). A smoothing factor of 6% was used based on the expected morphology of the GIR-profiles. Individual blood glucose levels were also subjected to a smoothing procedure. Fitted data were used to calculate the pharmacodynamic parameters, including the primary parameters of maximum smoothed body weight standardized GIR (GIRmax) and GIR-AUC over 10 h (GIR-AUC0–10 h), and the secondary parameter of time to reach GIRmax (GIR-tmax).
as §1

[2] = ratio of geometric means, linear mixed-effects model, equivalence range 0.80–1.25
[3] = ratio of geometric means, linear mixed-effects model, 10 h clamp, equivalence range 0.80–1.25

In the case of insulin aspart [NN-Asp-Jp], the “INS-AUCinf, gMean (% CV)” value [1] is reported as 15,200 (27) pg·h/mL, the “INS-Cmax, gMean (% CV)” value [1] is reported as 6690 (31) pg/mL and the “INS-AUClast, gMean (% CV)” value [1] is reported as 15,100 (27) pg·h/mL. The “GIR-AUC0-10 h, gMean (% CV)” value (healthy Japanese males) was 2098.06 (23.5) mg/kg, the “GIRmax, gMean (% CV)” value (healthy Japanese males) was 8.72 (21.0) mg/(kg·min) and the “median GIR-tmax (time to reach GIRmax)” value (healthy Japanese males) was 2.35 h.

For insulin aspart [SAR-Asp], the “INS-AUCinf, gMean (% CV)” value [1] was 15,400 (26) pg·h/mL, the “INS-Cmax, gMean (% CV)” value [1] was 6690 (32) pg/mL and the “INS-AUClast, gMean (% CV)” value [1] was 15,300 (27) pg·h/mL. For the same substance, the “INS-AUCinf mean ratio SAR-Asp/NN-Asp-Jp, point estimate (90% CI)” value [1, 2] was 1.02, the “INS-AUClast mean ratio SAR-Asp/NN-Asp-Jp, point estimate (90% CI)” value [1, 2] was 1.02 and the “INS-Cmax mean ratio SAR-Asp/NN-Asp-Jp, point estimate (90% CI)” value [1, 2] was 1.00. For the same substance, the “GIR-AUC0-10 h, gMean (% CV)” value (healthy Japanese males) was 2054.12 (22.2) mg/kg, the “GIRmax, gMean (% CV)” value (healthy Japanese males) was 8.70 (20.9) mg/(kg·min) and the “median GIR-tmax (time to reach GIRmax)” value (healthy Japanese males) was 2.82 h. For the same substance, the “GIR-AUC0-10 h mean ratio SAR-Asp/NN-Asp-Jp, point estimate (95% CI)” value (healthy Japanese males; [3]) was 1.00 and the “GIRmax mean ratio SAR-Asp/NN-Asp-Jp, point estimate (95% CI)” value (healthy Japanese males; [3]) was 1.01.
